Molecular target: HLA-DR molecule DRB1*0301 (human)
Assay: cell-based or functional assay

WEKMKSSEKIVYVYM [peptide SSX-4 37-51]
peptide titration assay: recognition by SSX-4 31-50 reactive CD4+ T cells from LAU 331, efficiency against peptide SSX-4 31-50: 3 fold
